Data taken from paper PMC9243006.
pKd: −log10 of the molar value.

Biological target: purified complement factor H protein (UniProt P06909)
Assay: SPR; CFH immobilised by amine coupling on a sensor chip; rTraT at 80, 40, 20, 10, 5 or 2.5 µg/ml

Chain of UniProt P06909 (P06909 19-1234): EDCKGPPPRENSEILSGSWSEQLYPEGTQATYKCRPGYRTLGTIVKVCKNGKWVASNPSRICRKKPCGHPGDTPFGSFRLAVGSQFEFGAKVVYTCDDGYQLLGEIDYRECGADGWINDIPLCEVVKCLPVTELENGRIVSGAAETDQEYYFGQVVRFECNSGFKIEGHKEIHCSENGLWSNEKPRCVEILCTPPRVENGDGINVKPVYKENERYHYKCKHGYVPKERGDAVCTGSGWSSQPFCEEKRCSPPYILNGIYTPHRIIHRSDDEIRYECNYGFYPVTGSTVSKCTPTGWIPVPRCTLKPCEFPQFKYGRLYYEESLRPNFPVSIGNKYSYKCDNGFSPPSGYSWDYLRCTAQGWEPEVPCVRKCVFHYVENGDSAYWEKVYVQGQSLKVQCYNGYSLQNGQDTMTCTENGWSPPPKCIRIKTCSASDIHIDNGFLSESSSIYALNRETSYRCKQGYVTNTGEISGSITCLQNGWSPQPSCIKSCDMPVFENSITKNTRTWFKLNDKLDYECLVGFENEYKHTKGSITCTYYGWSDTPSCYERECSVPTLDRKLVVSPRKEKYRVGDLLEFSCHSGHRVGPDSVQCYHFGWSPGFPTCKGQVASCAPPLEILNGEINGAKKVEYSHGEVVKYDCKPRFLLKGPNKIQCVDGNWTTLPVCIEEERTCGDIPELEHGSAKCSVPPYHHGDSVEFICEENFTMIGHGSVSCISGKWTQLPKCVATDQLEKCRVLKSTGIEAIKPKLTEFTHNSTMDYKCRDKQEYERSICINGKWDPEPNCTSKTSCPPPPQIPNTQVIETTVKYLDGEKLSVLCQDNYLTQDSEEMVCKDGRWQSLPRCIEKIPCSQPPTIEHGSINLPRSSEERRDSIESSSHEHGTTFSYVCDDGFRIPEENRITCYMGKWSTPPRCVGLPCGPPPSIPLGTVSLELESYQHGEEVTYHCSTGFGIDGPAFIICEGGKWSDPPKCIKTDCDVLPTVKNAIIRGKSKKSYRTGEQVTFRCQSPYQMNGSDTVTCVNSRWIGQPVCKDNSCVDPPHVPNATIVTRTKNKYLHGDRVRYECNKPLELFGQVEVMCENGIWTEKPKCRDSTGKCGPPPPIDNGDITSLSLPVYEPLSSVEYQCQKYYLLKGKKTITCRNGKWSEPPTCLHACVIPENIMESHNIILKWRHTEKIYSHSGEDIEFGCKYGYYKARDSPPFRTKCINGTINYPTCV

recombinant TraT (rTraT) (domain or fragment)
pKd: 5.50
